According to the supplement of paper PMC10724198:
± gives the standard deviation of the averaged measurements.

Tested on: Saccharomyces cerevisiae
Experiment: protein stability index of tFT-peptide fusion (C-terminal peptide) (PSI (0-1 scale)); higher = more stable (slower turnover)
Details: temperature: 30 C
Experimental: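 MPS profiling in S. cerevisiae of the yeast C-terminome library: the last 12 aa of each annotated ORF are fused to the C-terminus of a sfGFP-mCherry timer, after a GGGS linker. Cells are FACS-sorted into 8 mCherry/sfGFP bins and deep-sequenced. PSI runs from 0 (unstable) to 1 (stable); wild type and das1Δ backgrounds, two technical replicates each.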

[1] = genetic background: das1 deletion

Sequence | protein stability index [1] | protein stability index (genetic background: wild type)
NTFRKIKGDKKN [MDJ1 C-terminal 12 aa] | 0.687 ± 0.068 | 0.758 ± 0.0081
NTFVLNMSRFII [YDL068W C-terminal 12 aa] | 0.6739 ± 0.003 | 0.365 ± 0.079
NTHDLHLRPGTY [YBL005W-A C-terminal 12 aa] | 0.6794 ± 0.00083 | 0.708 ± 0.013
NTTHYNASLLRQ [PHO5 C-terminal 12 aa] | 0.688 ± 0.022 | 0.673 ± 0.017
NTVELLNIPLTS [YLR345W C-terminal 12 aa] | 0.6555 ± 0.0055 | 0.649 ± 0.0043
PAAIKQAIASNV [TRX2 C-terminal 12 aa] | 0.659 ± 0.0072 | 0.657 ± 0.0098
PAAKKVVELTQN [LSC2 C-terminal 12 aa] | 0.685 ± 0.012 | 0.58 ± 0.019
PDCTVCSNSNSN [UBA3 C-terminal 12 aa] | 0.705 ± 0.0088 | 0.677 ± 0.047
PEGEAPEAFSMK [SEC14 C-terminal 12 aa] | 0.7068 ± 0.0023 | 0.684 ± 0.036
PEGGDGPKYTLT [CIR2 C-terminal 12 aa] | 0.688 ± 0.018 | 0.721 ± 0.016
PEKWSASLKKFK [THI6 C-terminal 12 aa] | 0.731 ± 0.017 | 0.6854 ± 0.0031
PEMDKEKKKFYL [RPF1 C-terminal 12 aa] | 0.724 ± 0.04 | 0.708 ± 0.06
PEVIDTRKDNSN [COX11 C-terminal 12 aa] | 0.687 ± 0.012 | 0.696 ± 0.022
PFGKKKTGLFSL [PRM10 C-terminal 12 aa] | 0.723 ± 0.036 | 0.717 ± 0.03
PGDTLIEVIDLT [WSS1 C-terminal 12 aa] | 0.692 ± 0.025 | 0.7105 ± 0.00019
PGLRRQHTRNFL [YMR294W-A C-terminal 12 aa] | 0.697 ± 0.01 | 0.737 ± 0.042
PHVKLFETTSGL [IRC5 C-terminal 12 aa] | 0.718 ± 0.021 | 0.712 ± 0.014
PKGDIEASIAEE [MPH3 C-terminal 12 aa] | 0.6877 ± 0.00033 | 0.677 ± 0.016
PKWCSTMCSTAT [YDR445C C-terminal 12 aa] | 0.69 ± 0.03 | 0.743 ± 0.049
PLCYWHYSADTY [YIL105W-A C-terminal 12 aa] | 0.7217 ± 0.0058 | 0.808 ± 0.039
PLITPSGFRSSL [YNR025C C-terminal 12 aa] | 0.707 ± 0.0084 | 0.715 ± 0.025

Sequence | protein stability index [1] | protein stability index (genetic background: wild type)
PNLSRANFTRNK [RSA1 C-terminal 12 aa] | 0.695 ± 0.019 | 0.699 ± 0.014
PPFDFRLLFLLV [YGL165C C-terminal 12 aa] | 0.542 ± 0.033 | 0.269 ± 0.0091
PTVTRKTPDYFL [PPH22 C-terminal 12 aa] | 0.696 ± 0.0091 | 0.718 ± 0.089
QCNFSYLESNYF [CTS1 C-terminal 12 aa] | 0.689 ± 0.019 | 0.749 ± 0.06
QFDSENVILSVI [TRS120 C-terminal 12 aa] | 0.716 ± 0.023 | 0.687 ± 0.024
QHDEKPFYKRMF [HXT8 C-terminal 12 aa] | 0.723 ± 0.026 | 0.666 ± 0.045
QHLKTHKKHGDF [MSN4 C-terminal 12 aa] | 0.719 ± 0.0085 | 0.6983 ± 0.001
QIILQKEGVLDK [KCC4 C-terminal 12 aa] | 0.704 ± 0.0035 | 0.672 ± 0.0083
QKNKKRKFSDTS [RNT1 C-terminal 12 aa] | 0.696 ± 0.019 | 0.701 ± 0.018
QLNLVVNGVRLN [YLR379W C-terminal 12 aa] | 0.674 ± 0.021 | 0.655 ± 0.016
QMICPSLLGIRN [YHR130C C-terminal 12 aa] | 0.721 ± 0.013 | 0.6986 ± 0.0069
QMRKNMTRTDEK [PKH1 C-terminal 12 aa] | 0.671 ± 0.056 | 0.714 ± 0.026
QNNNILNDMRVN [SPT23 C-terminal 12 aa] | 0.669 ± 0.011 | 0.689 ± 0.039
QQQQQKKESSTA [GIM5 C-terminal 12 aa] | 0.727 ± 0.0087 | 0.7 ± 0.037
QRASSRPKERRK [MSB4 C-terminal 12 aa] | 0.711 ± 0.019 | 0.713 ± 0.016
QRERINNYISVY [VMA6 C-terminal 12 aa] | 0.352 ± 0.02 | 0.388 ± 0.0092
QRSKSKRQKRRK [YNG1 C-terminal 12 aa] | 0.705 ± 0.017 | 0.652 ± 0.036
QRTRRRMSLYKL [TOS3 C-terminal 12 aa] | 0.807 ± 0.036 | 0.853 ± 0.03
QRVIKPSSALQF [ECM7 C-terminal 12 aa] | 0.706 ± 0.01 | 0.682 ± 0.035
QSARRQRGSIAM [SDS24 C-terminal 12 aa] | 0.683 ± 0.02 | 0.6657 ± 0.0037
QSLKISKKRRRK [ZIP1 C-terminal 12 aa] | 0.734 ± 0.033 | 0.748 ± 0.086

Sequence | protein stability index [1] | protein stability index (genetic background: wild type)
QSMLDGNSPESV [DCR2 C-terminal 12 aa] | 0.6985 ± 0.0053 | 0.693 ± 0.021
QTILKNKKKISQ [GYP6 C-terminal 12 aa] | 0.701 ± 0.049 | 0.6842 ± 0.0023
QTVRKLDMDFEV [REV1 C-terminal 12 aa] | 0.735 ± 0.032 | 0.656 ± 0.03
QVYYELGQIPFE [MET18 C-terminal 12 aa] | 0.738 ± 0.0075 | 0.71 ± 0.011
QYMTSGYASNWN [YAR061W C-terminal 12 aa] | 0.715 ± 0.11 | 0.754 ± 0.096
QYQHQHQQDPRT [NAF1 C-terminal 12 aa] | 0.701 ± 0.014 | 0.728 ± 0.049
RATLNSVNSFLM [RIT1 C-terminal 12 aa] | 0.681 ± 0.013 | 0.673 ± 0.023
RAVSGVELRIYV [POP7 C-terminal 12 aa] | 0.644 ± 0.012 | 0.641 ± 0.017
RAVTNRSSCSRR [YCR038W-A C-terminal 12 aa] | 0.697 ± 0.011 | 0.689 ± 0.0074
RDAEILAKIAKD [HSP10 C-terminal 12 aa] | 0.683 ± 0.021 | 0.677 ± 0.0077
RDMVELMKFYEL [HOS1 C-terminal 12 aa] | 0.715 ± 0.0096 | 0.6886 ± 0.0047
RDVLDDGSNIMS [IAH1 C-terminal 12 aa] | 0.6824 ± 0.0049 | 0.7 ± 0.0082
REITKCKQIFHK [PTR3 C-terminal 12 aa] | 0.691 ± 0.02 | 0.686 ± 0.028
REWFDIELNFSK [PMT4 C-terminal 12 aa] | 0.7467 ± 0.0068 | 0.73 ± 0.024
RGENGQFWIGTK [BNI5 C-terminal 12 aa] | 0.744 ± 0.027 | 0.702 ± 0.03
RGIAAIRESLSN [YIR042C C-terminal 12 aa] | 0.6681 ± 0.006 | 0.697 ± 0.02
RHELQALQAEIN [END3 C-terminal 12 aa] | 0.715 ± 0.018 | 0.614 ± 0.018
RHRKSEDRSLEA [ATR2 C-terminal 12 aa] | 0.706 ± 0.029 | 0.703 ± 0.062
RIAAGDGDDDDE [QCR9 C-terminal 12 aa] | 0.7068 ± 0.0027 | 0.674 ± 0.041
